Data as given in US20230235058A1 (OXFORD UNIVERSITY INNOVATION, published 2023).

B1: Engineered humanised 3E8 (Variant B) (antibody, V domains shown)
VH: QVQLVQSGAELKKPGASVKVSCKASGYTFTSYAIRWVRQATGQGLEWMGEIYPRSGNTYYAQKFQGRATLTADKSISTAYMELSSLRSEDTAVYFCARSGGASYTMDYWGQGTTVTVSS
VL: ENVLTQSPATLSLSLGERATLSCSASSSVSSSYLHWYQQKPDQSPRPLIHRTSNLASGIPSRFSGSGSGTDYTLTISSLEAEDFAVYYCQQWSGYPFTFGSGTKLEIKR
B2: Engineered humanised 6.2 (Variant C) (antibody, V domains shown)
VH: EVQLVESGGGLVKPGGSLRLSCAASGFTLSSYGMSWVRQAPGKGLEWVASIRSDGQTYYPDSVKGRFTISRDNAKNTLYLQMSSLRAEDTAVYYCTRGGYYGSSPYYWGQGTTVTVSS
VL: DIVMTQSPLSLPVTPGEPASISCKSSQSLLYSSNQKNYLAWYQQKPGQSPKLLIYWASTRESGVPDRFSGSGSGTDFTLKISRVEAEDVGVYYCQQYYNYLTFGGGTKVEIKR
B3: humanised 2.8.6 hIgG1 (antibody)
heavy: not shown
VL: EIVLTQSPATLSLSPGERATLSCRASSSVSYMHWYQQKPGQAPRPLIYATSNRATGIPARFSGSGSGTDYTLTISSLEPEDFAVYYCHQWSSNPYTFGQGTKLEIKRTVAAPSVFIFPPSDEQLKSGTASVVCLLNNFYPREAKVQWKVDNALQSGNSQESVTEQDSKDSTYSLSSTLTLSKADYEKHKVYACEVTHQGLSSPVTKSFNRGEC
notes: Fc variant with the variable domains of humanised 2.8.6; not shown: human IgG1 heavy chain constant region; copies: 2 + 2
B4: Humanised 2.8.6 (hIgG1 P238D) (antibody)
heavy: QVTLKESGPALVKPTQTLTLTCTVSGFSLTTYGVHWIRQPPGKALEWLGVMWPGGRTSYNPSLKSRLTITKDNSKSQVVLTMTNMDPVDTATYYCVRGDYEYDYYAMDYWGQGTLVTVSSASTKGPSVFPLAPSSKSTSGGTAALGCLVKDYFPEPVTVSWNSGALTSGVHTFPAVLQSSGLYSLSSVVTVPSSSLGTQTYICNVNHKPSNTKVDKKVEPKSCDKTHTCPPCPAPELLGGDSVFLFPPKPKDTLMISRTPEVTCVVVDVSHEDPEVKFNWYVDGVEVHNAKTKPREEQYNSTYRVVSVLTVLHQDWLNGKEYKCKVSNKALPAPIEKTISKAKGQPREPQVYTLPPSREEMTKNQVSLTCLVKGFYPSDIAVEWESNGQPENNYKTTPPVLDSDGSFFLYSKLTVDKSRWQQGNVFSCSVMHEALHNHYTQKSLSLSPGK
light: EIVLTQSPATLSLSPGERATLSCRASSSVSYMHWYQQKPGQAPRPLIYATSNRATGIPARFSGSGSGTDYTLTISSLEPEDFAVYYCHQWSSNPYTFGQGTKLEIKRTVAAPSVFIFPPSDEQLKSGTASVVCLLNNFYPREAKVQWKVDNALQSGNSQESVTEQDSKDSTYSLSSTLTLSKADYEKHKVYACEVTHQGLSSPVTKSFNRGEC
notes: copies: 2 + 2
B5: humanised 2.8.6 hIgG1 P238D G237D P271G A330R (V9) (antibody)
heavy: QVTLKESGPALVKPTQTLTLTCTVSGFSLTTYGVHWIRQPPGKALEWLGVMWPGGRTSYNPSLKSRLTITKDNSKSQVVLTMTNMDPVDTATYYCVRGDYEYDYYAMDYWGQGTLVTVSSASTKGPSVFPLAPSSKSTSGGTAALGCLVKDYFPEPVTVSWNSGALTSGVHTFPAVLQSSGLYSLSSVVTVPSSSLGTQTYICNVNHKPSNTKVDKKVEPKSCDKTHTCPPCPAPELLGDDSVFLFPPKPKDTLMISRTPEVTCVVVDVSHEDGEVKFNWYVDGVEVHNAKTKPREEQYNSTYRVVSVLTVLHQDWLNGKEYKCKVSNKALPRPIEKTISKAKGQPREPQVYTLPPSREEMTKNQVSLTCLVKGFYPSDIAVEWESNGQPENNYKTTPPVLDSDGSFFLYSKLTVDKSRWQQGNVFSCSVMHEALHNHYTQKSLSLSPGK
light: EIVLTQSPATLSLSPGERATLSCRASSSVSYMHWYQQKPGQAPRPLIYATSNRATGIPARFSGSGSGTDYTLTISSLEPEDFAVYYCHQWSSNPYTFGQGTKLEIKRTVAAPSVFIFPPSDEQLKSGTASVVCLLNNFYPREAKVQWKVDNALQSGNSQESVTEQDSKDSTYSLSSTLTLSKADYEKHKVYACEVTHQGLSSPVTKSFNRGEC
notes: Fc variant with the variable domains of humanised 2.8.6; also called 2.8.6 hIgG1 V9; hIgG1 V9 isotype; copies: 2 + 2
B6: humanised 2.8.6 hIgG4 P238D (antibody)
heavy: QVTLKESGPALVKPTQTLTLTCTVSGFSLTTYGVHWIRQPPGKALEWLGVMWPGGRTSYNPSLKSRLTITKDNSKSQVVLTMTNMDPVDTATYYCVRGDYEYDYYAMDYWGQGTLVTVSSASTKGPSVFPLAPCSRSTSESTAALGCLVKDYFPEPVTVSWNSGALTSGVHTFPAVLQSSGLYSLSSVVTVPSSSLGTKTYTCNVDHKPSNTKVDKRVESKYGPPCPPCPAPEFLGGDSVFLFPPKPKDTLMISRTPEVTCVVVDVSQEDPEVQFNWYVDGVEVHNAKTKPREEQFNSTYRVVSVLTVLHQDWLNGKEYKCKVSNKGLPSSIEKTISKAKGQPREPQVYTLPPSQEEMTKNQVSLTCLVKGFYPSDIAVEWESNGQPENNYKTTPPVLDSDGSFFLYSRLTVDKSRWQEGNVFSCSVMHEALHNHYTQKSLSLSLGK
VL: EIVLTQSPATLSLSPGERATLSCRASSSVSYMHWYQQKPGQAPRPLIYATSNRATGIPARFSGSGSGTDYTLTISSLEPEDFAVYYCHQWSSNPYTFGQGTKLEIKRTVAAPSVFIFPPSDEQLKSGTASVVCLLNNFYPREAKVQWKVDNALQSGNSQESVTEQDSKDSTYSLSSTLTLSKADYEKHKVYACEVTHQGLSSPVTKSFNRGEC
notes: Fc variant with the variable domains of humanised 2.8.6; not shown: human IgG4 heavy chain constant region; copies: 2 + 2

Experiments:
[1] = biological target: T1, full length human BTLA expressed on cells (human, UniProt Q7Z6A9 31-289); assay: cell-based or functional assay
[2] = biological target: T1, full length human BTLA expressed on …; assay: flow cytometry, BTLA Jurkat cells
Protocol: (§1) A lentiviral transfection system was used to express full length human or cynomolgus BTLA in a Jurkat T cell line. 1×10⁵ cells per well were plated in 96 well U-bottom plates. […] Secondary antibody was incubated for 30 minutes on ice, then cells were washed and resuspended in FACS buffer for analysis on a flow cytometer. The geometric mean fluorescent intensity of secondary antibody was plotted for each concentration and the EC50 for receptor binding calculated by non-linear curve fitting using GraphPad Prism software.
(§2) The ability of the BTLA agonist antibodies of the present invention to bind to human or cynomolgus BTLA expressed on the cell surface was assessed by flow cytometry. A lentiviral transfection system was used to express full length human or cynomolgus BTLA in a Jurkat T cell line. 1×10⁵ cells per well were plated in 96 well U-bottom plates.

[3] = biological target: T2, full length cynomolgus BTLA expressed on Jurkat cells (cynomolgus monkey, UniProt Q7Z6A9 31-289 (human entry)); assay: flow cytometry, BTLA Jurkat cells
T2 construct: also called cynomolgus BTLA expressing cells
T2 chain: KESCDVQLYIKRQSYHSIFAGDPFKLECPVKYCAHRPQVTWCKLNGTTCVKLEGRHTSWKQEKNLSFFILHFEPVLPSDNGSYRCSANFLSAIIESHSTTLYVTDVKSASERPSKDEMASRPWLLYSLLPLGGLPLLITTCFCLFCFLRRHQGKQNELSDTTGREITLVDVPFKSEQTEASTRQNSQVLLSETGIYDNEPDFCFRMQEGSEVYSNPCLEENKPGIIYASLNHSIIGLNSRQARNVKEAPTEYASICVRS
Protocol: as §1, §2

[4] = biological target: T3, soluble cynomolgus macaque BTLA extracellular domain (BTLA K31-R151) (cynomolgus macaque); assay: SPR Biacore 8K 37C, single cycle kinetics;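 further: antibody captured on sensor chip, soluble BTLA extracellular domain flowed over at several concentrations in HBS-EP pH 7.4, rates fitted after subtracting isotype-control reference channel and blank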
T3 construct: also called cynomolgus BTLA; cyno BTLA
T3 chain: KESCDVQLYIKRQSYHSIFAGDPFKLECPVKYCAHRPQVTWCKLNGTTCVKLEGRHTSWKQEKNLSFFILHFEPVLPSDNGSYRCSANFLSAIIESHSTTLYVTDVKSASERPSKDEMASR
Protocol: (§3) The binding affinity and kinetics of humanised BTLA agonist antibodies to human or cynomolgus BTLA were determined by surface plasmon resonance using the Biacore 8K (GE Healthcare). […] Anti-BTLA antibody was then captured onto the biosensor surface and a negative control antibody (human IgG1k isotype control; Sino Biological cat #HG1K) captured in the reference channel. Various concentrations of monomeric soluble human BTLA extracellular domain (BTLA^K31-R151, produced recombinantly in house) or soluble cynomolgus macaque BTLA extracellular domain (BTLA^K31-R151, produced recombinantly in house) were then injected over the immobilized antibodies in the buffer HBS-EP (GE Healthcare, cat #BR100669), pH 7.4 (HBS-P) at 37° C., in a single cycle kinetics analysis.

[5] = biological target: T4, monomeric soluble human BTLA extracellular domain (BTLA K31-R151) (human, UniProt Q7Z6A9 31-151); assay: SPR Biacore 8K 37C, single cycle kinetics;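 further: antibody captured on sensor chip, soluble BTLA extracellular domain flowed over at several concentrations in HBS-EP pH 7.4, rates fitted after subtracting isotype-control reference channel and blank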
T4 construct: also called hBTLA; monomeric BTLA
Protocol: as §3

human FcγR2A 131H [6] = biological target: T5, human FcγR2A 131H (human, UniProt P12318 34-217); assay: SPR 37C, steady state; wild-type hIgG1 Fc
T5 construct: extracellular domain
T5 sequence (looked up): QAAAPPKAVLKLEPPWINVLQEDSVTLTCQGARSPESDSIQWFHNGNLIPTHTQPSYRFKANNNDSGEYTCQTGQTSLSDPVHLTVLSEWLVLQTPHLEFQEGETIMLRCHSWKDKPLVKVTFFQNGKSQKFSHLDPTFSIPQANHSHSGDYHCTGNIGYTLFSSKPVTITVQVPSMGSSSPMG
Protocol: (§4) For the low affinity FcγRs (FcγR2A, FcγR2B, FcγR3A and FcγR3B) the interactions were assessed by surface plasmon resonance with the recombinantly expressed FcRs (extracellular domains only) as analyte. Briefly, recombinant human BTLA extracellular domain (BTLA^K31-R151) was covalently immobilised to both flow cells of all channels of a CMS Series S sensor chip using the GE Healthcare Amine coupling kit. The 2.8.6 Fc variant to be assessed was then captured (approx. 500-1000 response units) in flow cell 2 of each channel. Steady state affinity analysis was then performed by injecting varying concentrations of FcR in multiple cycles and measuring equilibrium binding. Double referencing was used (subtracting the signal in the reference Fc1 and also subtracting the signal from a blank zero concentration injection). KDs were calculated from the Langmuir curves (plotting equilibrium binding against analyte concentration to determine the concentration required for half maximal binding).

human FcγR2B [7] = biological target: T6, human FcγR2B (human, UniProt P31994 43-217); assay: SPR 37C, steady state; wild-type hIgG1 Fc
T6 construct: extracellular domain; also called hFcγR2B; CD32B
T6 sequence (looked up): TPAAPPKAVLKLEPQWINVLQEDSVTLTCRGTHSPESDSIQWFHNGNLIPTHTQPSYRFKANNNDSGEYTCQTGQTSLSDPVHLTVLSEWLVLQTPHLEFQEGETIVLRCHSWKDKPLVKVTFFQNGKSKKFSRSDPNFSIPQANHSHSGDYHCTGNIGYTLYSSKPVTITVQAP
Protocol: as §4

human FcγR2A 131R [8] = biological target: T7, human FcγR2A 131R (human, UniProt P12318 34-217); assay: SPR 37C, steady state; wild-type hIgG1 Fc
T7 construct: extracellular domain
T7 sequence (looked up): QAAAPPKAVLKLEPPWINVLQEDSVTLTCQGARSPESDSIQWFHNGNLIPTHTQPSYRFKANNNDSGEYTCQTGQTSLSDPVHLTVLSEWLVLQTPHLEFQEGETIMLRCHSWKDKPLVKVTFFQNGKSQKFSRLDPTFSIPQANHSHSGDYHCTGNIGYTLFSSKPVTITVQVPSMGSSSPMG
Protocol: as §4

human FcγR3A 158F [9] = biological target: T8, human FcγR3A 158F (human, UniProt P08637 17-208); assay: SPR 37C, steady state; wild-type hIgG1 Fc
T8 construct: extracellular domain
Protocol: as §4

human FcγR3B [10] = biological target: T9, human FcγR3B (human, UniProt O75015 17-200, limits assumed); assay: SPR 37C, steady state; wild-type hIgG1 Fc
T9 construct: extracellular domain; also called CD16B
Protocol: as §4

human FcγR3A 158V [11] = biological target: T10, human FcγR3A 158V (human, UniProt P08637 17-208); assay: SPR 37C, steady state; wild-type hIgG1 Fc
T10 construct: extracellular domain
Protocol: as §4

human FcRn = biological target: T11, human FcRn (human, UniProt P55899 24-297; P61769 21-119, limits assumed, biotinylated); assay: SPR, pH6.0
T11 construct: bought; also called FcRn pH6

human FcγR1A [12] = biological target: T12, human FcγR1A (human, UniProt P12314 16-288, biotinylated); assay: SPR 37C, kinetic; wild-type hIgG1 Fc
T12 construct: bought; also called CD64A
Protocol: (§5) For the high affinity FcR interactions (FcγR1A, and also FcRn assessed at pH6.0) the binding was assessed in a kinetic analysis with antibody as analyte. […] Reference flow cell 1 was left empty in all channels. Purified antibody was then injected at a single concentration and on/off rates calculated by curve fitting on BiaEvaluation software.

human FcγR1A [13] = biological target: T12, human FcγR1A; assay: SPR 37C, kinetic
Protocol: as §5

[14] = biological target: T4, monomeric soluble human BTLA …; assay: SPR, monomeric BTLA
human FcγR2A 131H [15] = biological target: T5, human FcγR2A 131H; assay: SPR 37C, steady state;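 further: fc variants captured on chip-bound human BTLA ectodomain, recombinant FcγR ectodomains injected as analyte at varied concentrations, double-referenced equilibrium binding fitted to Langmuir model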
Protocol: as §4

human FcγR2B [16] = biological target: T6, human FcγR2B; assay: SPR 37C, steady state;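 further: fc variants captured on chip-bound human BTLA ectodomain, recombinant FcγR ectodomains injected as analyte at varied concentrations, double-referenced equilibrium binding fitted to Langmuir model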
Protocol: as §4

human FcγR2A 131R [17] = biological target: T7, human FcγR2A 131R; assay: SPR 37C, steady state;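 further: fc variants captured on chip-bound human BTLA ectodomain, recombinant FcγR ectodomains injected as analyte at varied concentrations, double-referenced equilibrium binding fitted to Langmuir model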
Protocol: as §4

human FcγR3A 158F [18] = biological target: T8, human FcγR3A 158F; assay: SPR 37C, steady state;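 further: fc variants captured on chip-bound human BTLA ectodomain, recombinant FcγR ectodomains injected as analyte at varied concentrations, double-referenced equilibrium binding fitted to Langmuir model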
Protocol: as §4

human FcγR3B [19] = biological target: T9, human FcγR3B; assay: SPR 37C, steady state
Protocol: as §4

human FcγR3A 158V [20] = biological target: T10, human FcγR3A 158V; assay: SPR 37C, steady state
Protocol: as §4

human FcγR2A 131H [21] = biological target: T5, human FcγR2A 131H; assay: SPR 37C, steady state; hIgG1 P238D G237D P271G A330R (V9) Fc variant
Protocol: as §4

human FcγR2B [22] = biological target: T6, human FcγR2B; assay: as above
Protocol: as §4

human FcγR2A 131R [23] = biological target: T7, human FcγR2A 131R; assay: as above
Protocol: as §4

human FcγR3A 158F [24] = biological target: T8, human FcγR3A 158F; assay: as above
Protocol: as §4

human FcγR3B [25] = biological target: T9, human FcγR3B; assay: as above
Protocol: as §4

human FcγR3A 158V [26] = biological target: T10, human FcγR3A 158V; assay: as above
Protocol: as §4

human FcγR1A [27] = biological target: T12, human FcγR1A; assay: SPR 37C, kinetic; hIgG1 P238D G237D P271G A330R (V9) Fc variant
Protocol: For the high affinity FcR interactions (FcγR1A, and also FcRn assessed at pH6.0) the binding was assessed in a kinetic analysis with antibody as analyte. […] Reference flow cell 1 was left empty in all channels. Purified antibody was then injected at a single concentration and on/off rates calculated by curve fitting on BiaEvaluation software. […] IgG Fc has two binding sites for FcRn so this assessment performed with FcRn immobilised at high density provides an avidity estimate for the interaction rather than a true KD.

human FcγR2B [28] = biological target: T6, human FcγR2B; assay: SPR (Example 23)
Protocol: as §4

human FcγR2A 131H [29] = biological target: T5, human FcγR2A 131H; assay: SPR 37C, steady state; hIgG4 P238D Fc variant
Protocol: For the low affinity FcγRs (FcγR2A, FcγR2B, FcγR3A and FcγR3B) the interactions were assessed by surface plasmon resonance with the recombinantly expressed FcRs (extracellular domains only) as analyte. […] The 2.8.6 Fc variant to be assessed was then captured (approx. 500-1000 response units) in flow cell 2 of each channel. Steady state affinity analysis was then performed by injecting varying concentrations of FcR in multiple cycles and measuring equilibrium binding. Double referencing was used (subtracting the signal in the reference Fc1 and also subtracting the signal from a blank zero concentration injection). KDs were calculated from the Langmuir curves (plotting equilibrium binding against analyte concentration to determine the concentration required for half maximal binding).

T8 sequence (P08637 17-208): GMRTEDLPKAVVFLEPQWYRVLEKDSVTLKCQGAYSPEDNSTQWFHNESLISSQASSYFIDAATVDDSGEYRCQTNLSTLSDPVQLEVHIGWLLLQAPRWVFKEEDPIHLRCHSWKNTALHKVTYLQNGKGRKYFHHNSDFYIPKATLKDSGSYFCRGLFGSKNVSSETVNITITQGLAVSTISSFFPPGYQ
T9 sequence (O75015 17-200 limits assumed): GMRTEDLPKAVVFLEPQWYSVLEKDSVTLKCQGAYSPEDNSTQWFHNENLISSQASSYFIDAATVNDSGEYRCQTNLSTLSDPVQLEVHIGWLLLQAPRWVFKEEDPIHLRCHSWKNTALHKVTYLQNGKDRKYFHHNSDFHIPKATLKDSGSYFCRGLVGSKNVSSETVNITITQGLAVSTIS
T12 sequence (P12314 16-288): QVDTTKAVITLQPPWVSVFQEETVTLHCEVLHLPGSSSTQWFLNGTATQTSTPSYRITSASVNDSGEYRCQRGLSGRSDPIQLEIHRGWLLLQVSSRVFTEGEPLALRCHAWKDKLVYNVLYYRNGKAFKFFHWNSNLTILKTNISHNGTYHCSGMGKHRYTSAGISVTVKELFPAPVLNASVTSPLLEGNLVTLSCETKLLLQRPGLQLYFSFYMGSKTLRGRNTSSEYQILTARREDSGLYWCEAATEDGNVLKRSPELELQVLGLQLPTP
T10 sequence (P08637 17-208 F176V): as the sequence (P08637 17-208) above, with F160V counted along it

Row | inhibition of NFkB signal, IC50 [1] | maximal inhibition of NFkB signal [1] | EC50 [2] | EC50 [3] | Kd [4] | koff [4] | kon [4] | Kd [5] | koff [5] | kon [5] | avidity (FcRn pH6) (human FcRn) | Kd (human FcγR2B [16]) | Kd (human FcγR2A 131R [17]) | other results | Binder
1 | 0.065 nM | 54% | 0.177 nM | 0.0156 µM | 1.52 µM | 0.431 s⁻¹ | 287000 M⁻¹ s⁻¹ | 0.141 µM | 0.122 s⁻¹ | 865000 M⁻¹ s⁻¹ | – | – | – | – | B1
2 | 0.028 nM | 47% | 0.062 nM | 0.000148 µM | 0.0154 µM | 0.00352 s⁻¹ | 229000 M⁻¹ s⁻¹ | 0.00125 µM | 0.00133 s⁻¹ | 1.06e+06 M⁻¹ s⁻¹ | – | – | – | – | B2
3 | – | – | – | – | – | – | – | – | – | – | 4.58 nM | – | – | Kd (human FcγR2A 131H [6]): 1.98 µM; Kd (human FcγR2B [7]): 8.65 µM; Kd (human FcγR2A 131R [8]): 1.57 µM; Kd (human FcγR3A 158F [9]): 9.37 µM; Kd (human FcγR3B [10]): 22.9 µM; Kd (human FcγR3A 158V [11]): 2.78 µM; Kd (human FcγR1A [12]): 0.00375 µM | B3
4 | 0.059 nM | 42% | 0.066 nM | 0.000854 µM | 0.147 µM | 0.025 s⁻¹ | 170000 M⁻¹ s⁻¹ | 0.00233 µM | 0.00157 s⁻¹ | 673000 M⁻¹ s⁻¹ | 1.43 nM | 4.78 µM | 28.9 µM | Kd (human FcγR1A [13]): 0.465 µM; Kd [14]: 0.00073 µM; Kd (human FcγR2A 131H [15]): 76.5 µM; Kd (human FcγR3A 158F [18]): 2480 µM; Kd (human FcγR3B [19]): 1580 µM; Kd (human FcγR3A 158V [20]): 7010 µM | B4
5 | – | – | – | – | – | – | – | – | – | – | 1.98 nM | – | – | Kd (human FcγR2A 131H [21]): 26.2 µM; Kd (human FcγR2B [22]): 0.173 µM; Kd (human FcγR2A 131R [23]): 1.84 µM; Kd (human FcγR3A 158F [24]): 216 µM; Kd (human FcγR3B [25]): 6090 µM; Kd (human FcγR3A 158V [26]): 321 µM; Kd (human FcγR1A [27]): 0.697 µM; fold higher affinity than the P238D isotype (human FcγR2B [28]): ~30 fold | B5
6 | – | – | – | – | – | – | – | – | – | – | – | 17.5 µM | 47.9 µM | Kd (human FcγR2A 131H [29]): 312 µM | B6
